Test results from publication PMC3479211.
Each block holds one molecule with its values, some of them ahead of it.

Tests used:
[1] = molecular target: wild-type His-p32 (mouse) (UniProt O35658); assay: SEC
[2] = molecular target: mutant His-p32 (K89A/K93A) (mouse) (UniProt O35658); assay: SEC
p32 (gC1qR) wild-type [3] = molecular target: T1, p32 (gC1qR) wild-type (Mus musculus, UniProt Q8R5L1 72-279); assay: competition
T1 sequence: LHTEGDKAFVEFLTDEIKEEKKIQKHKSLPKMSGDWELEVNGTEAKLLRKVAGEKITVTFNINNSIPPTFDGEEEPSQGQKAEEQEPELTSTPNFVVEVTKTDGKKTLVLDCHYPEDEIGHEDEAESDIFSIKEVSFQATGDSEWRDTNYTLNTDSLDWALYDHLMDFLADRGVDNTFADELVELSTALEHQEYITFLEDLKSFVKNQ

p32 (gC1qR) wild-type [4] = molecular target: T1, p32 (gC1qR) wild-type; assay: EMSA
p32 (gC1qR) wild-type [5] = molecular target: T1, p32 (gC1qR) wild-type; assay: EMSA; remark: listed apart in the source
p32 (gC1qR) wild-type [6] = molecular target: T1, p32 (gC1qR) wild-type; assay: competition; remark: listed apart in the source

stoichiometry N [1]: 3
Molecule: wild-type His-p32 (from UniProt O35658 71-278) (natural protein)

stoichiometry N [2]: 3
Molecule: mutant His-p32 (K89A/K93A) (from UniProt O35658 71-278) (natural protein)

Molecule: AAAAAAAAAAAAAAAAAAAAAA (ssDNA) [22-mer poly(A) DNA]
binding result (p32 (gC1qR) wild-type [3]): no binding

Molecule: GUUUACGGUGCUA (ssRNA) [14-mer RNA (random)]
binding result (p32 (gC1qR) wild-type [4]): binds

Molecule: AAAAAAAAAAAAAAAAAAAAAA (ssRNA) [22-mer poly(A) RNA]
Kd (p32 (gC1qR) wild-type [5]): ~6 µM

Molecule: GGGAGAAAAACAAAACAAAACAAAACUAGCACCGUAAAGC (ssRNA) [40-mer RNA (random)]
binding result (p32 (gC1qR) wild-type [6]): binds
